Assay [1] has as its target T1, H-2K^d class I molecule on NOD splenocytes (Mus musculus, UniProt P01902).
T1 construct: Female NOD splenocytes were cultured with a K^d allele-specific peptide in an attempt to load the empty peptide groove of this class I molecule; endogenous in cells; host or cells: primary splenocytes (macrophage/monocyte and lymphocyte gates) from female NOD mice and control B10.D2 (R103) mice
T1 sequence (P01902 22-368): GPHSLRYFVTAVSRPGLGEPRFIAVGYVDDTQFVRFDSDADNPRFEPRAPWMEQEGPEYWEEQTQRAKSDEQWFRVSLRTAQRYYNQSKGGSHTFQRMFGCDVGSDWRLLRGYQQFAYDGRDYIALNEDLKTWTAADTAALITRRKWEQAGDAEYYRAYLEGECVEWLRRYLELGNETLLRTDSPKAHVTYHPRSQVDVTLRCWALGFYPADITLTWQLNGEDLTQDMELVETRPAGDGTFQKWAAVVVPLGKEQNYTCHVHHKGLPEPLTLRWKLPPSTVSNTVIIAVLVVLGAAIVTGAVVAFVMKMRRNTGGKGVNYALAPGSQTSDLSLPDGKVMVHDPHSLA
T1 sequence (P01887 21-119 partner): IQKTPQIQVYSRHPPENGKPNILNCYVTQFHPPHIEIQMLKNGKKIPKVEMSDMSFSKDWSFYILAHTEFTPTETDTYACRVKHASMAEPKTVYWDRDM
In kind it is cell-based.

Assay [2] concerns H-2K^d target cells.

Where no end group is shown, it is not given here.

TYQRTRALV [K^d-specific peptide]: the “mean fluorescence attributable to K^d” value in assay [1] (control class I-identical B10.D2 (R103) splenocytes, peptide 480 μM, 5 hours at 37° C.) is “no change in mean fluorescence”. The “surface expression of K^d (mean fluorescence, FACS)” value in assay [1] (female NOD mouse macrophages, peptide 480 μM, 5-hour incubation at 37° C.) is recorded as “stabilized the surface expression of K^d”. Also, in assay [1] (female NOD splenocytes), the “dose dependence of restoration and stabilization of K^d expression” value was “dose dependent”; the “optimal peptide concentration for restoration and stabilization of K^d expression” value was “greater than 240 μM”. For the same sequence, in assay [2], the “susceptibility to CTL lysis after incubation with peptide” value is “did restore susceptibility to CTLs” and the “susceptibility to CTL lysis after prior incubation with peptide” value is “Neither the susceptibility of control BALB/c targets nor that of NOD male targets to CTL lysis was affected”.

The values above are taken from patent publication US6984380B1, “Treatment of diseases involving faulty MHC class I antigen complex presentation” (priority 1991, dated 2006).
